We go through 5 substances from publication PMC8519567.

pKd: −log10 of the molar value. Read-outs that look alike come from different tables or passages of the source.

Series [1] relates to SMARCAD1 (dephosphorylated with CIP) (Homo sapiens). As to the kind of experiment: FP.
Series [2] addresses histones: H3-H4 (Alexa Fluor 488–H4) and H2A-H2B (Atto647N H2B) mixed at 10 nM (human). As to the kind of experiment: FRET or BRET. (In BRET a luciferase serves as donor, and the signal depends on an acceptor being close.)
Series [3] has the same target. As to the kind of experiment: FRET or BRET. The source holds these as a separate data set.
In series [4] the target is refolded histones H3-H4 labeled with Alexa Fluor 488 on H4 (human) (UniProt P68431). As to the kind of experiment: fluorescence polarisation.
Series [5] has as its target 7 N11 nucleosome labeled at H4 E63C with Alexa Fluor 488 (human) (UniProt P04908). As to the kind of experiment: fluorescence polarisation. (Polarisation of emitted light reports the rotation of a fluorescent probe.)

Usually pKd stands for the negative decadic logarithm of the Kd, by convention in mol/L. In turn, “7N11 nucleosome (165 bp), Alexa Fluor 488 at H4 E63C” showed a pKd in series [1] of 7.05.
Consider 147-bp 601 DNA, for which, in series [1], the negative logarithm of the Kd (pKd) was 7.10.
Substance TLH3 nucleosome (tailless H3) had a negative-log Kd (pKd) in series [1] (H3 N-terminal tail deleted) of 6.48.
On to TLH4 nucleosome (tailless H4), for which, in series [1] (H4 N-terminal tail deleted), the negative-log Kd (pKd) is 6.96.
“dephosphorylated SMARCAD1 (from UniProt Q9H4L7 1-1026) (enzyme)”: the pKd in series [2] was 8.89; in series [3] it was 8.68; in series [4], 8.40; in series [5] it was 7.05.
